This data set in a line: soluble on expression in E. coli; label from the status in PepcDB or PDB records.
With “MILIKNGRVMDPKSQRDQVADVLIDGKQIVKIASAIECQEAQVIDASGLIVAPGLVDIHVHFREPGQTHKEDIHTGALAAAAGGVTTVVMMANTNPVISDVETLQEVLASAAKEKIHIYTNASVTQAFNGKDVTDFKALLEAGAVSFSDDGIPLESSKVLKEAFDLANANQTFISLHEEDPQLNGVLGFNEGIAEEHFHFCGATGVAEYSMIARDVMIAYDRQAHVHIQHLSKAESVQVVAFAQQLGAKVTAEVSPQHFSTTEDLLLIAGTSAKMNPPLRTQRDRLAVIEGLKSGVITVIATDHAPHHKDEKTVDDMTKAPSGMTGLETSLSLGLTHLVEPGHLTLMSLLEKMTLNPALLYGFDAGYLAENGPADLVIFADKQERLITENFASKASNSPFIGNKLKGVVKYTIADGEVVYPN”, the “soluble on expression in E. coli” value is reported as “not soluble”.

For the sequence “MILINVKYQVRPEYVDTFLDEVKWFTDACRAEEGNLFFDWFKNPEKDNEFILVEGFKDGSDVAHVQSEAFQRACEEIPRYLLETPKIINVSIPGKTEWDTMAEFVVE”, the “soluble on expression in E. coli” value is listed as “not soluble”.

Turning to “MILKPENEKKLIIDVLKKFGVPEEDAKITADVFVDADLKGFTSHGIGRFPQYITALKLGNINPKPDIKIVKESPATAVIDGDLGLGQVVGKKAMELAIKKAKNVGVGVVATRNANHFGIAGYYSELAMNQDMIGITITNTEPAMAPFGGKEKILGTNPIAIAFKGNKYKFSLDMATASIARGKILEALRKKIKIPEGCAVDKDGKPTTDPAKALEGCILPFGGPKGYGLALAIEMLSAIGGAEVGTKVKGTANPEERCTKGDLFIAINPEFFMGKEEFKRKVDELLDEIKNSEPAEGFEILIPGEIEERNKMKRKDGFEIDKNLYNQLKEICNELGLNIEDYIE”, the “soluble on expression in E. coli” value is “soluble”.

“MILKTTLELVIDVKNNEKKIRTHSWKTKKIPPKKGEVSGQKLMVEKKSSKIFIENLKCQGNSAKNIFVFHLDLLHIKKLKNLNISMSSTDPILDISFDKPVYYPGDNMKLTVSVDTKRPLNARSVMFRCRGFRNRTVSFLNKYGIAWICKDGKNELPVGRLEQKFQFELGKDCPPTYKDGKIIYKVRLEIDQPWSRPLFIEKEFKMVHKLADQKMSQVMTYTSSPRFDALFSNGQPTFKVTMPKFTLYPGETTEFKLEVENHSSSTVKKIYAELEAEPFPLYHIYGNTKAKGKMHVLVAPYSTQKFTIPFTIPTDLTASFHTCGSSLKYTMKFGLVTDSWLTTDPALALVVSIGELESEEKKDEALKTPPPPPYTA”: the “soluble on expression in E. coli” value is reported as “not soluble”.

Regarding “MILLIDNYDSFVFNVKSMLEQLSNDEILVRRNDAISLSEIKNLNPTHIILSPGPKHPSQSGICLEIFKARLNIPVLGICLGHQALALAFDSLVVKMQEPMHAKNSLIKQCRENELFSNLPSNFSVMRYHSLEVKQLSDELEILALDEKGVIMALGHKNLPYYGVQFHPESYFSEYGLQLFSNFLKQDIKKPQKQENPLSFYLQKMSENHFLQSDDFEQICKIIMSKDYEILQVVALLILITEKSLNEKSLSAFVRQILRYSQTFSDESEMIDICGTGGDGFKSINVSTTSAFILAALGVKVAKHGNRAISSSSGSTDVLEALNITTPNTLESVLKQLNNQGLSFLHAPFFHPLVGELKEIRSRLGVRTVFNVLGPLLHPNLKLKYQLMGNYHAPVHRLLIEVLKNLGRKKALVVRGNDGMDELSICDESKIYELCEGEILEYSICPEQFGFKRAFHSEIIGSSAYDNAKDLKDILSGRMQGAKFDLVVLNAMFALYTANKASSPLVAKDMILEAIYSGKVIEYFKEYQAYAKA”, the “soluble on expression in E. coli” value is listed as “not soluble”.

“MILMESLSVSGTETVSVPQDWNVMDVIGAKSWYVVSEKEPSWEEIIKGKTVEAVDEPPSRFEVISTSPLVLKKDTKYYIYNSTLKKWLVLEYEEPQSSRKLVMNGQGKVTLLLRSSGSWNVRYYLFEDTLTGNAFLSVSGVESADVFLISRPAGEASIWKGMYLSASPSREMPEEHESEEVKVYHLGKVKDLDKSPVVNLIETNLFNVNEYYSYSFAVNDSIFDYQKTTFTRSFMTPVDLPGGTVSIFSNISGVDIMIGETSIPDTPKNSLLELPVTDSWDVRVKGEILDERNYKDTYEYERTWRVTVQNLNETESKVRINIYGNMMRLLRSSIKPLKETSDQIVFELIVPPNSEKEFEFKVRSGWLEHHHHHH”: the “soluble on expression in E. coli” value is given as “not soluble”.

In the case of “MILVFLGPPGAGKGTQAKRLAKEKGFVHISTGDILREAVQKGTPLGKKAKEYMERGELVPDDLIIALIEEVFPKHGNVIFDGFPRTVKQAEALDEMLEKKGLKVDHVLLFEVPDEVVIERLSGRRINPETGEVYHVKYNPPPPGVKVIQREDDKPEVIKKRLEVYREQTAPLIEYYKKKGILRIIDASKPVEEVYRQVLEVIGDGN”, the “soluble on expression in E. coli” value is listed as “soluble”.

Consider “MIMKANIFNIQRFSIHDGPGIRTVVFFKGCPLRCPWCSNPESQHRPPQILWDKKKCFYGHLCEVKCPAGCLNFENNNLVFSADNCTGCKSCITQCPGKALTFVGNMMELDEVMEEVLKDMDFYQESKGGVTLSGGEVLVQPDFAAALLKKCKENGIHTALETTAFSTPLVFSKVLANTDLLLLDIKHYNDREHIKYTGVSNQSILENLDFAVTMKVPVVARIPVIPSVNNTIQDAKEFVKLLKEHRVDTVNLLPFHQFGEKKYEELQVPYQLKDVKALRPEDMTEYYNVFKNAGLNVSM”, for which the “soluble on expression in E. coli” value was “not soluble”.

For the sequence “MINKTKEKLILIGMPGSGKTTIGKLLAKEYNCSFCDMDDYIIQISQKSIAELFSEGEDIFRNYETQACRELSISDKTVISTGGGVIKKDVNMEILKETGIIIFIDRPIQKILEDININSRPLLKNGKDRLYNLYNERINLYKKFSDIEILNDKSLNNAVYNITNAVSENFKFDFKEK”, the “soluble on expression in E. coli” value is “not soluble”.

Consider “MINMKPQYYLGMMSGTSLDGVDIVLVDFSQDPQLILSDFFPMPEDLREKLTTLIQVGETTLQNLGELDHKLALLYSDCVNAFLQKNTFLPNQIQAIGCHGQTVWHSPNSQFPFTMQLGDMNLLAAKTGISVIGDFRRKDMAWGGQGAPLVPAFHEAVFSNSNFATAVLNIGGISNVSILFPNQAVIGFDTGPGNTLLDQWIEKHQGLRYDENGEWAAKGNVNKVLLDELLNEPFFSLPAPKSTGRELFNLVWLNHKIAKIREKLTALSVEMSFRPEDVQATLVELTVTSIVNALNQLQTDLPKRLLVCGGGAKNSLIMRGLHDNLLDWQVSTTTEQGFDIDYVEAAAFAWLAYCRINNLPANLPSVTGAKSAVSLGAIFPKD”, for which the “soluble on expression in E. coli” value was “not soluble”.

As to “MINPIASLSPLDGRYAQSVEALRPIFSEYGLMKARVKVELNWLKALAAEPKIAEVPPFSAETLAEIDTVIENFSLEDAAAVKAIEATTNHDVKAIEYWLKKRFAEVPEVAAVSEFIHFACTSEDINNLSHALMLQEAREAVLLPKLAEIIEKLTAMAHDLAAVPMMSRTHGQPATPTTLGKETANVVYRLQRQFKNLQAQEFLGKINGAVGNYNAHMVAYPDVDWETHCRNFVEISLGLTFNPYTIQIEPHDYMAEFFQTLSRINTILIDFNRDVWGYISLGYFKQKVKAGEVGSSTMPHKVNPIDFENSEGNLGMANAVLGFLSEKLPISRWQRDLTDSTVLRNMGVGVGYAVLGFAAHLRGLNKLEPNPAALAADLDATWELLAEPIQTVMRRYGVANPYEKLKDLTRGKGGITPEVLKGFIGLLEIPAEAKAKLLELTPALYVGKAEALAKRI”, the “soluble on expression in E. coli” value is “not soluble”.

With “MINRTLKQVEQMINGTGLAEQYEGITIQGVSIDTRKIEKGNLYVPIQGERFDGHAFVDKAVENGAVATLWVKDVANPPENLPVIFVEDTLSALQMLAKNYRDQLDVKVIGVTGSNGKTSTKDIVTSLLATKFKVQKTEGNFNNHIGLPLTILNLEENTEVAVLEMGMSSRGEIEFLSKLARPNAAIITNIGEAHLMDLGSREAIAEAKLEIVTGLQEGGVFVYNGDEPLLTNRVPEMNLIAETVTFGDARANDYYPTTVTLQATGTHFKMNREENISFYLPVLGKHNVYNTLASMAIAKYFGVTWEEMKEGLVTLQMTGMRMEIVKTDSGLTIINDAYNASPTAMEAAFHLMNGLDGFSKKIVVLGDMLELGDQEVQFHYEVGKLIDPAKISYVFTYGKLGAQIAEGAKINFPNERVKAYDNKEELVKELQAVVDTKDVVLVKASRGMKLEEVITMLK”, the “soluble on expression in E. coli” value is recorded as “not soluble”.

In the case of “MINVDPPTGNFPASGGNSVHNIVSESDSRLAFKVKSSNNEHYRVRPVYGFIDPKGKTKLDINRIAGPPKVDKLVIQYAEVPADETDPQAPFKAGAQQGEVIVKITAE”, the “soluble on expression in E. coli” value is given as “not soluble”.

The record behind these values is the DeepSol protein solubility set.
